This series in a line: yeast display, Sf9 membrane polyspecificity reagent, FACS + sequencing; frameworks hold sequencing errors. The essentials:
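Nanobodies from a synthetic yeast display library (Saccharomyces cerevisiae BJ5465), induced 36–48 hours with galactose, were stained 1 hour at 4 °C with 10% biotinylated, detergent-solubilized Sf9 membrane reagent, enriched on streptavidin microbeads, then FACS-sorted. Anti-HA (expression) and streptavidin (reagent binding) fluorescence set low and high (top ~1%) gates. Polyreactivity labels come from the gate of origin. Genes were colony-PCR amplified, MiSeq 2 × 250 sequenced and filtered by CDR length.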
Consider “QVQLVESGGGLVQAGGSLRLSCAASGRTLYRYAMGWYRQEPGKERELVAAIRSGGRTNYADSVKGRFTISRDNAKNTVYLQMNSLKPEDTAVYYCAARTLRYPSTYDYWGQGTQVTVSS”, for which the “polyreactivity (PSR sort gate)” value is on record as “high polyreactivity”.

In the case of “QVQLVESVGGLVQAGGSLRLSCAASALAMGWYRHAPGKERELVAVITSDGRTYYADSVKGRFTISRDNAKNTVYLQMNSLKPEDTAVYYCARDSRTIRYYAWFYPFRYDYWGQGTQVTVSS”, the “polyreactivity (PSR sort gate)” value is reported as “low polyreactivity”.

Regarding “QVQLVESGAGLFQAGGSLRLSCAPSGSIFAPNDMGWYRQAPGKERELVAAITSSGGRTYYADSVKGRFTISRDNAKNTVYLQMNSLKPEDTAVYYCAADHGYQYGYWGQGTHVTVSS”, the “polyreactivity (PSR sort gate)” value is recorded as “low polyreactivity”.

Turning to “QVQLVDSGGGLDQAGGSLRLSCAASGSIFVSEYDMVWYIQAPGKERELVARSRWSSGSTYYADSVKGRFSISRDYAKNTVYVQMNSLKPEDTAVYYCNTVRTRERTDYDYWGQGTQVTVSS”, the “polyreactivity (PSR sort gate)” value is reported as “low polyreactivity”.

As to “QVQLVESGGGLVQAGGSLRLSCAASGIIFDTYAMGWYRQAPGKERELVAAISRSGDTTYYADSVKGRFTISRDNAKNTVYLQMNSLKPEDTAVYYCYARQSRWDKYDYWGQGTQVTVSS”, the “polyreactivity (PSR sort gate)” value is given as “high polyreactivity”.

For “QVQLGESGVGLVQAGGSLRLSCASSGRTLPVNAMGWYRQAPGKERELVAGISWGGDSTYYADSVKGRFTISRDNAKNSVYLQMNSLKPEDTAVYYCAASSSTWPGDFWGQGTQVTVSS”, the “polyreactivity (PSR sort gate)” value was “low polyreactivity”.

With “QVQLVESGGGLVQAGGRLRLSCAASGRTIDHYAMGWYRQAPGKERELVAAISTTGGSTYYADSVKGRFTISRDNAKNTVYLQMNSLKPEDTAVYYCAARGLRTGGYWGQGTQVTVSS”, the “polyreactivity (PSR sort gate)” value is reported as “high polyreactivity”.

Take “QVQLVESGGGLVQAGGSLRLICAASGSTCVDNAMGGYRPAPGKERELVADISSVGSTYYADYVKGRFTISRDNAKNTVYLQMNTLIPEDTAVYYCNRAGGYRTTFYSWGQGTQVTVSS”: the “polyreactivity (PSR sort gate)” value was “high polyreactivity”.

With “QVQLVDSGGGLLQAGGSLRLSCAASGRTCRGYAMGWYRQAPGKEWELVAAITSGGSTNYADSVKGRFTISRDNATNTVSIQMNRLKPEETAVYYCAAGRSTGQYRYYFWGLGTQVTVSS”, the “polyreactivity (PSR sort gate)” value was “high polyreactivity”.

For the sequence “QVQLVESGGGLVQAGGSLRLSCAASGSIFCRYDMGWLDRRLGKKGSSLPLLLVLVTTRTTQTPVKGRFTISRDNAKNTVYLQIICLKPEDTAVYNCAADLRASGLKYEYWGQGTQVTVSS”, the “polyreactivity (PSR sort gate)” value is reported as “low polyreactivity”.

For the sequence “QVQLVESGGGLVQAGGSLRLSCAASGSTLRGYAMGWYRQAPGEERELVAAISRRGSGTYYADSVKGRFTISRDNAKHTVYLQMNSLKPEETAVYYCNAVNGDYEFGYWGQGTQVTVSS”, the “polyreactivity (PSR sort gate)” value is listed as “high polyreactivity”.

Take “QVQLVESGGGLVQAGGSLRLSCAASGRIFGAYAMGWYRQAPGKERELVAAISSGGSTNYADSVKGRFTISRDNAKNTVYLQMNSLKPEDTAVYYCAAERLYSWYYYKYNSEFYYWGQGTQVTVSS”: the “polyreactivity (PSR sort gate)” value was “low polyreactivity”.

Regarding “QVQLVESGGGLVLAGGSLRLSCAASGSILEGYVMGWYRQAPGKERELVAAISRGGGSTYYADSVKGRFTISRDNAKNTVYLQMNSLKPEDTAVYYCAARFAASYYWGQGTQVTVSS”, the “polyreactivity (PSR sort gate)” value is reported as “high polyreactivity”.

Take “QVQLVESGGGLVQAGGSLRLSCAASGRTFKGYAMGWYRQAPGKERELVAAITGSVGSTYYADSVKGRFTISRDNAKNTVYLQMNSLKPEDTAVYYCAKRWKATRARYDYWGLGTQVTVSS”: the “polyreactivity (PSR sort gate)” value is on record as “high polyreactivity”.

For “QVQLVESGGGLVQAGGSLRLSCAASGFIFYRYAMGWYRQAPGKEREFVAVISRSGDRTNYADSVKGRFTISRDNAKNTVYLQMNSLKPEDTAVYYCNTDSRSAHGYWGQGTQVTVSS”, the “polyreactivity (PSR sort gate)” value is reported as “high polyreactivity”.

“QVQLVESGGGLVQAGGSLRLSCAASGFIYTRNAMGWDRQAPGQERELVAAITSSGGSTYYADTVKGRFTISRDNAKNTVYLQMNSLKREDTAVYYCARGKSVGFNYWGQGTQVTVSS”: the “polyreactivity (PSR sort gate)” value was “high polyreactivity”.

For the sequence “QVHLVESGGGLVQAGGSLRLSCAASGRISQNALGWYRQAPGKEREVVAAITFSGGSTYYADSVKGRFTISRDNATNTVYLQMNSLKPEDNAVYYCNVRLYTDGLKYDYWGQGTQVTVSS”, the “polyreactivity (PSR sort gate)” value was “low polyreactivity”.

As for “QVQLVESGGGLVQAGGSLRLSCAASGRIIQYNAMGWYRQAPGKERELVAAISWRSGRTYYADSVKGRFTISRDNAKNTVYLQMNSLKPEDTAVYYCAATSRTSWYGYWGQGTQVTVSS”, the “polyreactivity (PSR sort gate)” value is “high polyreactivity”.

On to “QVQLVESGGGLVQAGGSLRLSCAASGSTFRRYAMGWYRQAPGKERELVAGITSGGDTYYADSVKGRFTISRDNAKNTVYLQMNSLKPEDTALYYCARVRYGRMDYWGQGTQVTVSS”, for which the “polyreactivity (PSR sort gate)” value is “high polyreactivity”.

For “QVQLVESGGGLVQAGGSLRLSCAASGLIFNKYTMGWYRQAPGTERELVAAISKSGGSTYYADSVKGRFTISRDNAKNTVYLQMNSLKPEDTAVYYCNRVTHYIRFDYWGQGTQVTGSS”, the “polyreactivity (PSR sort gate)” value is recorded as “low polyreactivity”.

Consider “QVQLVESGGGLVQAGGSHRLSCAASGSIFSTYAMGWYRQAPGKERELVAAITSDGTYADSVKGRFTISRDNARNTVYLQMNSLKPEDTAVYYCAAYYPYTRHGDYWGQGTQVTVSS”, for which the “polyreactivity (PSR sort gate)” value is “low polyreactivity”.

“QVQLVESGGGLVKAGGSLRLSCAASGITFRKYAMGWYRQAPGKERELVAAITAGGGRTFYADSVKGRFTISRDNAKNTVYLQMNSLKPEDTAVYYCNADLGIGYDYWGQGTQVTVSS”: the “polyreactivity (PSR sort gate)” value was “high polyreactivity”.

Turning to “QVQLVESGGGLVQAGGILRLSCAASGRTFSRYAMGWYRQAPGKERELVAAITWDGGSTYYADSVKGRFTISRDNAKNSVYLLMNSLKPEDTAVYYFAARYIRNRMNYWGQGTQVTVSS”, the “polyreactivity (PSR sort gate)” value was “high polyreactivity”.

Turning to “QVQLVESGGGLVHAGGRLRLSCDASGSLFFWNTMGWYRQAPGKQRQLVAAITVSGGRTYYADSVKGRFTISRDNAKNSFYLQMYSLKPEDTAVYYCAADPYRLYGYASYTYWGQGTQVTVSS”, the “polyreactivity (PSR sort gate)” value is “high polyreactivity”.

With “QVQLVESGGGLVQAGGSLRLSCAASGSIFTYYAMGWYRQAPGKERELVAAISSDGSTTYADSVKGRFTISRDNAKNTVYLQMNSLKPEDTAVLLLQRSGLRRSGVWFDYWGQGTQVTVSS”, the “polyreactivity (PSR sort gate)” value is on record as “low polyreactivity”.

Turning to “QVQLVESVGGLVQAGGSLRLTCAASGRIFEINTMGWYRQAPGKERELVAAISRGGGSTYYADSVKGRFTISRDNAKNTVYLQMNSLKPEDTAVYYCAAASYYVEGDYWGQGTQVTVSS”, the “polyreactivity (PSR sort gate)” value is “low polyreactivity”.

For “QVQLVESGGGLVQAGGSLRLSCAASGRIFGGYAMGWYRQAPGKERELVAAISGSGGRTYYADSVKGRFTISRDNAKNTVYLQMNSLKPEDTAVYYCNKGYVYGHEYWGQGTQVTVSS”, the “polyreactivity (PSR sort gate)” value is “high polyreactivity”.

Take “QVQLVESGGGLVQAGGSLRLSCAASGFTFLVYVMGWYRQAPGKVRELVAAISSCGSSTYYADSVKGRFTISRDNAKNTVYLQMNSLKPEDTAVYYCAAAPYYSHEYDYWGQGTQVTVSS”: the “polyreactivity (PSR sort gate)” value is on record as “low polyreactivity”.

On to “QVQLVESGGGLVQAGVSLRLSCASSGFTFHYYAMGWYRQAPGKERELVAAISWSSGRTYYADSVKGRFTISRDNAKNTVYLQMNSLKPEDTAVYYCAASSYNRGDYWGQGTQVTVSS”, for which the “polyreactivity (PSR sort gate)” value is on record as “low polyreactivity”.

With “QVQLVESGGGLVQAGGSLRLSCAASGITFDYYDMGWYRQAPGKERELVATITSDGSTTYADSVKGRFTISRDNAKNTVYLQMNSLKPEDTAVYYCAAALHIYSYFYITYDYWGQGTQVTVSS”, the “polyreactivity (PSR sort gate)” value was “high polyreactivity”.

For “QVLLQESGGGLVQAGGSLRLSCAASGNIFSAGGMGWYRQAPVNERELVAGIGTGTSTNYADSVKGRFTISRDNAKNTVYLQMTSLKPEVTAVYYCAAAYYSGLSHWYWGQGTQVTVSS”, the “polyreactivity (PSR sort gate)” value is given as “low polyreactivity”.

Regarding “QVQLVESGGGLVQAGGSLRLSCAASGSNFAVYAMGWYRQAPGKERELVAAISFSGGSTYYADSVKGRFTISRDNAKNTVYLQMNSLKPEDTAVYYCAADPWWTRTDLDYWGQGTQVTVSS”, the “polyreactivity (PSR sort gate)” value is reported as “low polyreactivity”.

In the case of “QVQLVESGGGLVQAGGSLRLSCAASGSILDYYAMGWYRQAPGKERELVAAIRVNGGSTYYADSVKGRFTISRDNAKNTVYLQMNSLKPEDTAVYFCAARFSRFRRTRSEYDYWGQGTQVTVSS”, the “polyreactivity (PSR sort gate)” value is on record as “high polyreactivity”.

On to “QVQLVESGGGLVQAGGSLRLSCAASGSIFAWYGMGWYRQAPGKERELVAAISTAGSTNYADSVKGRFTISRDNAKNTVYLQMNSLKQEDSAVYYCAKKSSWYYPERFDYWGQGTQVNVSS”, for which the “polyreactivity (PSR sort gate)” value was “low polyreactivity”.

Turning to “QVQLVESGGGLVQAGGSLRLSCPASGITFGTNAMGWYIQAPGKERELVAAISKRGSSTYYADSVKGRFTISRDNAKNTVYLQMNSLKPEDTAVYYCNVVDERTRNLSKFYYWGQGTQVTVSS”, the “polyreactivity (PSR sort gate)” value was “high polyreactivity”.

Consider “QVQLVESGGGLVQAGGSLRLSCDASGRIFRANAMGWYRQAPGKERELVASISRGGSTNYADSVKGRFTISRDNAKNTVYLQMNRLKPEDTAVYYCAARLGFYPYGYTSWYTVYYWGQGTQVTVSS”, for which the “polyreactivity (PSR sort gate)” value is given as “low polyreactivity”.

For the sequence “QVQLVESGGGLVQAGGSLRLSCAASGSTFPYNAMGWYRQAPGKEREMVAAITYSGGSTYYADSVKGRFTISRDNAKNTVYLQMNSLKPEDTAVYYCNADDSTTYDYWGQGTQVTVSS”, the “polyreactivity (PSR sort gate)” value is “low polyreactivity”.

Turning to “QVQLVESGGGLVQAGGSLRLSCAASGSTFASYAMGWYIQAPGKERELVAAITDSGGSTYYADSVKGRFTISRDNAKNTVYLQMNSLKPEDTAVYYCAAYGPYFSYHDYDYWGQGTQVTVSS”, the “polyreactivity (PSR sort gate)” value is “low polyreactivity”.

“QVQLVESGGGLVQAGGSLRLSCAASGFTFRNYAMGGYRQAPGKERELVAAISKSGGSTYYADSVKGRFTISRDNAKNTVYLQMNSLNPEDTAVYYCATDYLYVYGFEYYYWGQGTQVTVSS”: the “polyreactivity (PSR sort gate)” value is recorded as “high polyreactivity”.

On to “QVQLEESGGGLVQAGGSLRLTCAASGSTVDKNDMGWYRPEPGQESELVAASTSSGSSTYYADSVKGRFTISRDNAKNTVYLQMNSLKPEDTAVYYCAADKYYYDRLSPSGDYLGQGTQVTVSS”, for which the “polyreactivity (PSR sort gate)” value is recorded as “low polyreactivity”.

For the sequence “QVQLVESGGGLVQAGGSLRLSCAASGFIFGGYAMGWYRQAHGKEREWVAAISRSGGSTYYADSVKGRFTISRDNAKNTVYLQMNSLKPEDTAVYYCNAVPRRQGFNYWGQGTQVTVSS”, the “polyreactivity (PSR sort gate)” value was “high polyreactivity”.
